Consider 2 molecules from paper PMC12780157 (Nature Communications, 2025).

Test [1] deals with β-tubulin (αβ-tubulin heterodimer). As to the kind of experiment: X-ray co-crystal structure at […] Å. It counts as binding.
The target in test [2] is recombinant Tubulin protein (cat# CSK-T240-B-T) (UniProt P02550). Nature of the test: ITC.
The target is the same in test [3]. Nature of the test: ITC. This is another data set of the same source. (In general: Isothermal titration calorimetry measures the heat released or taken up as one component is titrated into another.)
Test [4] shares this target. As to the kind of experiment: ITC. This is another data set of the same source.

Read-outs that look alike come from different tables or passages of the source.

For orientation: Kd means the constant that tells how readily two partners part at equilibrium. `COc1c(Cl)cc([C@@H]2c3cc4c(cc3C[C@H]3C(=O)NC(=O)N23)OCCO4)cc1Cl` [KY216, (6R,10aS)-6-(3,5-dichloro-4-methoxyphenyl)-2,3,10a,11-tetrahydro-[1,4]dioxino[2,3-g]imidazo[1,5-b]isoquinoline-8,10(6H,9H)-dione]: the Kd in test [1] was found to be 150 ± 10 nM.
As for “recombinant VASH2 protein (cat# YHK84701) (from UniProt Q86V25 1-355) (enzyme)”, the Kd in test [2] was determined as 520 nM; in test [3] it was 1490 nM; in test [4] it was 1530 nM.
